Test results reported in the supplement of paper PMC7125110.
± gives the standard error. This sample holds only a part of the variants without activity.

B1: glmS ribozyme (parent)
chain: AUAAAAGCGCCAGAACUACAGAAAUGUAGUUGACGAGGAGGAGGUUUAUCGAAUUUUCGGCGGAUGCCUCCAAA

Variants of: B1
Assay: self-cleavage kobs at 2500 uM GlcN6P; higher = faster cleavage; RNA array
Settings: with glucosamine-6-phosphate
In short: (§1)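 A hybridised Cy3 probe tracked barcoded ribozyme variants, transcribed in situ by E. coli RNA polymerase on sequenced MiSeq chips, at 37 °C. The variants received 40 μM to 10 mM glucosamine-6-phosphate in HEPES/KCl/Mg(OAc)2 buffer. kobs came from decay fits and kcat and KM from weighted Michaelis–Menten fits.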

Variant	self-cleavage kobs at 2500 uM GlcN6P [s⁻¹]
C16U G37C G51C G59C G60C	< 1e-05
A14C A15C G38U	< 1e-05
A33G A36G G38U C61U C71A	< 1e-05
U30A G40A C71A	0.00142 ± 0.0005
A12U A33U A42G G51C U55A C71G	< 1e-05
C10G A42C U45G	< 1e-05
C16U U46C A53C	0.000978 ± 0.0002
U31G G41A G63U	< 1e-05
A15U G35C C68G	< 1e-05
C11G C61A G62C	< 1e-05
C10A G41C C50G A53C	< 1e-05
A14C U45A U57A	3.29e-05 ± 1.2e-05
U30C A42C U46A	< 1e-05
C34A G40C U46C U47A G59C	< 1e-05
G9A G44U G60A	< 1e-05
C19A U30C	7.18e-05 ± 2.3e-05
G32C A39U C50G A52C U57A A64U	< 1e-05
C10G C16G G32C A42U G60U	< 1e-05
A12G U45G U54G	0.000192 ± 5.5e-05
A12C A14U A53C	8.51e-05 ± 4e-05
A15G U55A G66C	0.000727 ± 0.00013
C11U U31C C50U	< 1e-05
A12G A14C A53U A64C	< 1e-05
A33U G35A U45G C50G C70A	< 1e-05

Variant	self-cleavage kobs at 2500 uM GlcN6P [s⁻¹]
C10G C11A A33C A36U A52U A53C U56A G62U	< 1e-05
G32A G51U	< 1e-05
C10U A14C G32C	< 1e-05
C10G A36C G60C C70U	< 1e-05
C11U A48U G60U	< 1e-05
A12U G32A G35U U49A C61G U65C G66A	< 1e-05
C11A A14C C70U	7.46e-05 ± 2.7e-05
G13C U47A U69G	0.000497 ± 0.00015
U30G U56G C71A	0.000262 ± 6.3e-05
A14C C34G A48C	< 1e-05
A33G C34U U49A	< 1e-05
G13U G40A A42C U65G	< 1e-05
C11U G32C C50G C61G	0.000267 ± 7.4e-05
U30A G43C G51C C67G	< 1e-05
G29C U49G C61U	< 1e-05
A12G A33G G44C	< 1e-05
A12U G13A G32C A36G C61U	< 1e-05
A15G U30A G44U U45A	0.000178 ± 5.5e-05
C16A U31C G43A U47G A53G C68U	8.35e-05 ± 2.9e-05
C16G A48C G60U A64U	< 1e-05
A12G U49A U65A	< 1e-05
A15G G35A U46C A53C	< 1e-05
G29U U45G C71U	0.000117 ± 5e-05
G26U G32A G63A C71U	< 1e-05

Variant	self-cleavage kobs at 2500 uM GlcN6P [s⁻¹]
G9C C11G C71U	< 1e-05
A33U G40C U46G C50U	< 1e-05
C11G U30C G40C	< 1e-05
A14G U31C G40U U55A	0.0012 ± 0.00032
U30A G37A G59C	< 1e-05
A15C U55A G60C	< 1e-05
G32U U56G C71A	9.14e-05 ± 2e-05
G32A G44U U49A G63A	< 1e-05
U30A U31A G40A U57G	< 1e-05
A33U G41U G62U	< 1e-05
C16U G35U G62U G63U	< 1e-05
C11G G37A G60U G63C U69C C70U	< 1e-05
A14U G29A G40U U45A C50G C71G	< 1e-05
G32U G43A A64G	< 1e-05
U31C C34A G41U U57G G60C	< 1e-05
G32U G40C A42G	7.39e-05 ± 1.8e-05
C10U G13U A64C	< 1e-05
G13C G35C G44U U56A C61U	< 1e-05
A15C G43A G44U G59U	< 1e-05
A15G G32A C68U	0.000247 ± 8.7e-05
U31C G37U U65A	< 1e-05
C16U G29C A64G G66C	0.000347 ± 0.00011
U30G G37A A42U	6.68e-05 ± 1.2e-05
G13U G40A A53G	0.000153 ± 3.6e-05

Variant	self-cleavage kobs at 2500 uM GlcN6P [s⁻¹]
C10A G37A A53C	< 1e-05
G13U U31G G41U G43U	< 1e-05
C19U G41C U55C C70A	0.000203 ± 9.2e-05
A14G A36G C58G	< 1e-05
C34A A42C A52U C71A	< 1e-05
G9U A12U C68U	< 1e-05
A15G G32C C68G	< 1e-05
U31G G32A U46G A52U	< 1e-05
A12G C16U C67U	0.000252 ± 5.2e-05
G9C G40U G41U U45G	< 1e-05
C11U A12G A15U	0.000175 ± 4.8e-05
A12U A14U G29C U49A	< 1e-05
C10G C16U A33G G40C U47G U56G	< 1e-05
A33U C34A G38A C50A C70G	0.00153 ± 0.0004
A12C G13U U30C G60A G66A	< 1e-05
A12G A53C U56G	5.07e-05 ± 1.5e-05
A15U U56C U57G G63A C70G	0.000104 ± 4.9e-05
C11G C50U C61U C70G	0.000127 ± 3.7e-05
A15G A33C U45A	0.000135 ± 4.1e-05
G9C A15C A33C U46A U65G	< 1e-05
C16A G29C U45C	0.000155 ± 3.5e-05
C34A A39C G66C C71A	< 1e-05
A12C U49G G62U	< 1e-05
A33C G37A U47A	< 1e-05

Variant	self-cleavage kobs at 2500 uM GlcN6P [s⁻¹]
C10U G29C G62C	< 1e-05
C10G C11G A36C G38C A53C G60U	< 1e-05
C10U U47G A52U U69A	7.36e-05 ± 3.5e-05
A15G G38U U57A G62U U69A	0.000891 ± 0.00032
U31G A33C G38C A39G G62A	< 1e-05
A15U A39G G51A	< 1e-05
A33G U56C G60A	< 1e-05
U31C G32A G38C G43A	< 1e-05
G26U G66U	0.000774 ± 0.00023
G9U C50A G51U C68G	0.00198 ± 0.00067
C10G G35U U46G C68A	< 1e-05
U31C A36U	< 1e-05
G13A U30C G59A	< 1e-05
C16G G29U C34G	< 1e-05
C16G G43U U45A U65G C68U C70U	< 1e-05
C11A U54A U56A G59U	0.00154 ± 0.00068
G32A G35A C61U C71U	< 1e-05
A12G U45G C50A U57G	< 1e-05
G29U U57A C68G	8.07e-05 ± 2.8e-05
G9C A12G C58G	< 1e-05
G9C A39C C67A	< 1e-05
G13U A39C A48C	< 1e-05
C11U G29C G44U G63U U65C C67U C71U	< 1e-05
G29C G38U U56C	< 1e-05

Variant	self-cleavage kobs at 2500 uM GlcN6P [s⁻¹]
U31A A39G C67U	0.00111 ± 0.0004
A14G G44C	0.000239 ± 4.2e-05
A12U G40A A53C	0.00179 ± 0.00063
C10A A15C U46A C61U U65C	< 1e-05
A14U G32U G40U	3.98e-05 ± 1.3e-05
G29C C50U A53G C71U	< 1e-05
A14G G29C A39G	0.000197 ± 9.1e-05
C16U C34G A53C	< 1e-05
A14G G41U U69A	8.6e-05 ± 2e-05
A12U G35U A53U C61G U65C	< 1e-05
A12U G44C A53G U56A	7.9e-05 ± 2.1e-05
C16U G51C U54C U57G	< 1e-05
U31A A48G G59A	0.000108 ± 3.6e-05
A15G A33G A48C C61A	< 1e-05
A12C U54G C71U	0.00338 ± 0.0011
G29A G43C C68G	0.00377 ± 0.0014
C16U C34U U47C G59U C71U	< 1e-05
C16U G29U A53U	0.00254 ± 0.00062
U30G G43U A52G C67A U69G	< 1e-05
C10G C34G A48C	< 1e-05
G32A U69G C70G C71U	0.00186 ± 0.00064
C11U G29A G38U U47C	< 1e-05
C16U U30G G32A C68U	7.75e-05 ± 3.2e-05
C11G G13A C16G G29C G37C A53G	< 1e-05

Variant	self-cleavage kobs at 2500 uM GlcN6P [s⁻¹]
C16U G32C A36G C58G G59C C61A	< 1e-05
U30G G43U U45A C68U	0.000375 ± 9.4e-05
A15U U56C C68A C71G	< 1e-05
C16U G43U U45G	0.00141 ± 0.00031
A15G A39U G60C	< 1e-05
G9U C10U C67U	< 1e-05
G29C G40A U56G	4.42e-05 ± 1.1e-05
C16A G32U U55G	0.000117 ± 3.5e-05
A14U A36U G41A A48G C68U	< 1e-05
A12U A36G A52C C67U C71U	< 1e-05
A15U A64G C71G	5.53e-05 ± 1.5e-05
C10A A48C A64U	< 1e-05
A14U U30G G41U	0.000233 ± 7.4e-05
U31G G32A U56G	9.1e-05 ± 2.5e-05
A12G A42C G59U G63U	< 1e-05
C34A A36U A52G	< 1e-05
C10G C34U U46C C70U	< 1e-05
C11A G37C G38U	< 1e-05

Variants of: B1
Assay: self-cleavage kobs at 10000 uM GlcN6P; higher = faster cleavage; RNA array
Settings: with glucosamine-6-phosphate
In short: as §1

Variant	self-cleavage kobs at 10000 uM GlcN6P [s⁻¹]
C19A U30C	6.71e-05 ± 2.2e-05
A14C C34G A48C	< 1e-05
U30G G37A A42U	9.36e-05 ± 2.3e-05
C11U A12G A15U	0.000193 ± 4.2e-05
C11G C50U C61U C70G	3.43e-05 ± 1.4e-05
U31C A36U	< 1e-05
A12G U45G C50A U57G	< 1e-05
A14G G44C	0.000423 ± 7.7e-05
A12U G40A A53C	0.00159 ± 0.00056
A14G G29C A39G	0.000412 ± 7.6e-05
C16U G29U A53U	0.00591 ± 0.00094
C16U U30G G32A C68U	0.000157 ± 5.1e-05
C16A G32U U55G	0.000315 ± 4.6e-05
U31G G32A U56G	0.000522 ± 9.3e-05
